# Substitutions are numbered along the chain they refer to.
# T1: human CEACAM5 expressed on MKN-45 wt cells (human, UniProt P06731 35-702)
# T1 sequence: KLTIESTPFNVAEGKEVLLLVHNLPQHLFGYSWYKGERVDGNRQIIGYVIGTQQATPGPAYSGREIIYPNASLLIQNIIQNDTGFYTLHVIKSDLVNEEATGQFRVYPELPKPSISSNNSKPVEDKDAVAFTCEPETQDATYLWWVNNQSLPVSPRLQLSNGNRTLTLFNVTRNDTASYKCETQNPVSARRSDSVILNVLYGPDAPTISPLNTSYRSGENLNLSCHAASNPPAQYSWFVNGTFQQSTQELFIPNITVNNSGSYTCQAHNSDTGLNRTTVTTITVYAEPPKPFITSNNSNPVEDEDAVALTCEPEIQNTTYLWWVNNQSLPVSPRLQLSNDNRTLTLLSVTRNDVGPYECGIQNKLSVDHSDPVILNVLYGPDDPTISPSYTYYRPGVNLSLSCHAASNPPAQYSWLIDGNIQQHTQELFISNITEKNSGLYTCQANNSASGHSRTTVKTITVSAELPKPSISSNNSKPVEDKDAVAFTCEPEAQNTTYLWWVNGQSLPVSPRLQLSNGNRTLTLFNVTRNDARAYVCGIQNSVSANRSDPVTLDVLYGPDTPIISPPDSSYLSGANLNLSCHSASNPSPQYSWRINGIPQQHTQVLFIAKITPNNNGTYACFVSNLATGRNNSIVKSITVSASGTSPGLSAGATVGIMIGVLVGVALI
# T2: biotinylated recombinant human CEACAM5 (human, UniProt P06731 35-685, biotin on the C-terminal Avitag)
# T2 construct: also called CD66e; not shown: C-terminal Avitag plus hexa-histidine tag, human Fc or mouse Fc
# T2 sequence: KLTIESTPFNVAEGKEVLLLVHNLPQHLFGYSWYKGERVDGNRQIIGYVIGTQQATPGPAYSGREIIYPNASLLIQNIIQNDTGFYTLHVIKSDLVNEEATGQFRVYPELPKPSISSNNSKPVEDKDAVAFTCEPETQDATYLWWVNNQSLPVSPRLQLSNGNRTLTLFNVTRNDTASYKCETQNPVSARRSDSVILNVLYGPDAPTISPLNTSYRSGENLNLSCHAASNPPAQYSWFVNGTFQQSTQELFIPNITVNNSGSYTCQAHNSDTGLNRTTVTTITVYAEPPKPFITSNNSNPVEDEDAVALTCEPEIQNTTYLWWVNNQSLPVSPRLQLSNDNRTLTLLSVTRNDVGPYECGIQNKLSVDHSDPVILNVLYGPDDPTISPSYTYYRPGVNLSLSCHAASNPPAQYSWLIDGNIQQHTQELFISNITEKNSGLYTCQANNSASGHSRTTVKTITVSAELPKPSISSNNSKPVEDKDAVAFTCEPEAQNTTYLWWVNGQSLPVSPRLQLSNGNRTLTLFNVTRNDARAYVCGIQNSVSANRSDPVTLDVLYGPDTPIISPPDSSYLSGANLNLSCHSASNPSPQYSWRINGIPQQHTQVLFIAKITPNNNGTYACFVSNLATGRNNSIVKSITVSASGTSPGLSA
# B1: K2AC54 (bispecific antibody, human IgG1, kappa, lambda)
# heavy: not shown
# light 1: QSVLTQPPSVSGAPGQRVTISCTGSSSNIHDVGYVHWYQQLPGTAPKLLIYGASGRPSGVPDRFSGSKSGTSASLAITGLQAEDEADYYCQSYDTRQVVPTPVFGGGTKLTVLGQPKAAPSVTLFPPSSEELQANKATLVCLISDFYPGAVTVAWKADSSPVKAGVETTTPSKQSNNKYAASSYLSLTPEQWKSHRSYSCQVTHEGSTVEKTVAPTECS
# light 2: not shown
# notes: 6 is full length
# B2: K2AC57 (bispecific antibody, human IgG1, kappa, lambda)
# heavy: not shown
# light 1: B1 light 1 with H30I, D31N, V32N, G33S, G52A, A53P, G55N, Q97F
# light 2: not shown
# notes: 6 is full length
# B3: K2AC56 (bispecific antibody, human IgG1, kappa, lambda)
# heavy: not shown
# light 1: B1 light 1 with H30I, D31N, V32N, G33S, G52A, A53P, G55N, R96T, Q97G, V99M
# light 2: not shown
# notes: 6 is full length
# B4: K2AC53 (bispecific antibody, human IgG1, kappa, lambda)
# heavy: not shown
# light 1: B1 light 1 with T95G, Q97A, V99F
# light 2: not shown
# notes: 6 is full length
# B5: K2AC55 (bispecific antibody, human IgG1, kappa, lambda)
# heavy: not shown
# light 1: B1 light 1 with R96S, Q97A, V99F
# light 2: not shown
# notes: 6 is full length
# B6: K2AC52 (bispecific antibody, human IgG1, kappa, lambda)
# heavy: not shown
# light 1: B1 light 1 with R96K, Q97R, V98E, V99F
# light 2: not shown
# notes: 6 is full length
# B7: K2AC49 (bispecific antibody, human IgG1, kappa, lambda)
# heavy: not shown
# light 1: QSVLTQPPSVSAAPGQKVTISCSGSSSNIFDSGVSWYQQLPGTAPKLLIYNHNERPSGIPDRFSGSKSGTSATLGITGLQTGDEADYYCGTWDFPPSRFVFGGGTKLTVLGQPKAAPSVTLFPPSSEELQANKATLVCLISDFYPGAVTVAWKADSSPVKAGVETTTPSKQSNNKYAASSYLSLTPEQWKSHRSYSCQVTHEGSTVEKTVAPTECS
# light 2: not shown
# B8: K2AC50 (bispecific antibody, human IgG1, kappa, lambda)
# heavy: not shown
# light 1: QSALTQPASVSGSPGQSITISCTGTSSDVYEFRLVSWYQQHPGKAPKLMIYFDSLRPSGVSNRFSGSKSGNTASLTISGLQAEDEADYYCSSWDKFGYAFNSVFGGGTKLTVLGQPKAAPSVTLFPPSSEELQANKATLVCLISDFYPGAVTVAWKADSSPVKAGVETTTPSKQSNNKYAASSYLSLTPEQWKSHRSYSCQVTHEGSTVEKTVAPTECS
# light 2: not shown
# B9: K2AC41 (bispecific antibody, human IgG1, kappa, lambda)
# heavy: not shown
# light 1: DIQMTQSPSSLSASVGDRVTITCQASQEIAATLNWYQQKPGKAPKLLIYNYSTLETGVPSRFSGSGSGTDFTFTISSLQPEDIATYYCQQVGLNPENTTFGGGTKLTVLGQPKAAPSVTLFPPSSEELQANKATLVCLISDFYPGAVTVAWKADSSPVKAGVETTTPSKQSNNKYAASSYLSLTPEQWKSHRSYSCQVTHEGSTVEKTVAPTECS
# light 2: not shown
# notes: 6 is full length; CEACAM arm light chain hybrid (VK + lambda CL), CD47 arm (K2) fully kappa
# B10: K2AC43 (bispecific antibody, human IgG1, kappa, lambda)
# heavy: not shown
# light 1: B9 light 1 with E28N, A30P, A31R, L33I, N50D, Y51I, T53N, N97L
# light 2: not shown
# notes: 6 is full length; CEACAM arm light chain hybrid, CD47 arm fully kappa
# B11: K2AC42 (bispecific antibody, human IgG1, kappa, lambda)
# heavy: not shown
# light 1: B9 light 1 with E28R, A31R, Y51F, T53A, N94D, E96N, N97L
# light 2: not shown
# notes: as for B10
# B12: AC41K2 H-CL1 (bispecific antibody, human IgG1, kappa, lambda)
# heavy: not shown
# light 1: not shown
# light 2: DIQMTQSPSSLSASVGDRVTITCRASQSISSYLNWYQQKPGKAPKLLIYAASSLQSGVPSRFSGSGSGTDFTLTISSLQPEDFATYYCQQMHPRAPKTFGGGTKLTVLGQPKAAPSVTLFPPSSEELQANKATLVCLISDFYPGAVTVAWKADSSPVKAGVETTTPSKQSNNKYAASSYLSLTPEQWKSHRSYSCQVTHEGSTVEKTVAPTECS
# notes: CEACAM5xCD47 κλ body, IgG1, common heavy chain
# B13: AC43K2 H-CL1 (bispecific antibody, human IgG1, kappa, lambda)
# heavy: not shown
# light 1: not shown
# light 2: B12 light 2
# notes: CEACAM5xCD47 κλ body, IgG1, common heavy chain; CEACAM arm light chain fully kappa, CD47 arm light chain hybrid
# B14: SM3E (antibody, V domains shown)
# VH: QVKLEQSGAEVVKPGASVKLSCKASGFNIKDSYMHWLRQGPGQRLEWIGWIDPENGDTEYAPKFQGKATFTTDTSANTAYLGLSSLRPEDTAVYYCNEGTPTGPYYFDYWGQGTLVTVSS
# VL: ENVLTQSPSSMSVSVGDRVNIACSASSSVPYMHWLQQKPGKSPKLLIYLTSNLASGVPSRFSGSGSGTDYSLTISSVQPEDAATYYCQQRSSYPLTFGGGTKLEIK
# notes: also called anti-CEACAM5 antibody SM3E
# B15: SAR (antibody, V domains shown)
# VH: EVQLVESGGGLVQPGGSLRLSCAASGFVFSSYDMSWVRQAPGKGLEWVSYISSGGGITYYADSVKGRFTISRDNSKNTLYLQMNSLRAEDTAVYYCAAHYFGSSGPFAYWGQGTLVTVSS
# VL: DIQMTQSPSSLSASVGDRVTITCRASENIFSYLAWYQQKPGKAPKLLIYNTRTLQSGVPSRFSGSGSGTDFTLTISSLQPEDFATYYCQHHYGTPFTFGQGTKLEIK
# notes: also called mAb derived from Mab2_VLg5VHg2
# B16: AC49 (antibody, human IgG1, lambda, V domains shown)
# VH: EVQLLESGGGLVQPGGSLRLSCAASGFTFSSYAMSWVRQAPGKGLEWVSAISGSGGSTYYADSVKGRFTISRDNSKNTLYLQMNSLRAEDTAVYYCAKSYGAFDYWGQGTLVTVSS
# VL: QSVLTQPPSVSAAPGQKVTISCSGSSSNIFDSGVSWYQQLPGTAPKLLIYNHNERPSGIPDRFSGSKSGTSATLGITGLQTGDEADYYCGTWDFPPSRFVFGGGTKLTVLG
# notes: Bivalent IgG1 mAb; 6 carries the IgG1 Fc; also called CEACAM5/CEACAM6 mAb AC49
# B17: AC57 (antibody, human IgG1, lambda, V domains shown)
# VH: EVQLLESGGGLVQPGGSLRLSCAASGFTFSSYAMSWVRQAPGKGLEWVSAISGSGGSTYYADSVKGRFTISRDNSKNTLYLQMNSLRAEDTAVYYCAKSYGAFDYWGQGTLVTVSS
# VL: QSVLTQPPSVSGAPGQRVTISCTGSSSNIINNSYVHWYQQLPGTAPKLLIYAPSNRPSGVPDRFSGSKSGTSASLAITGLQAEDEADYYCQSYDTRFVVPTPVFGGGTKLTVLG
# notes: Bivalent IgG1 mAb; 6 carries the IgG1 Fc
# B18: AC50 (antibody, human IgG1, lambda, V domains shown)
# VH: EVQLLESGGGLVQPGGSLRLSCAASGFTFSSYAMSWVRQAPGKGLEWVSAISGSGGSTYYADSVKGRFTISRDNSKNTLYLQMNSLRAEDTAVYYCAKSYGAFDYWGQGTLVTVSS
# VL: QSALTQPASVSGSPGQSITISCTGTSSDVYEFRLVSWYQQHPGKAPKLMIYFDSLRPSGVSNRFSGSKSGNTASLTISGLQAEDEADYYCSSWDKFGYAFNSVFGGGTKLTVLG
# notes: Bivalent IgG1 mAb; 6 carries the IgG1 Fc; also called CEACAM5/CEACAM6 mAb AC50
# B19: AC58 (antibody, human IgG1, lambda, V domains shown)
# VH: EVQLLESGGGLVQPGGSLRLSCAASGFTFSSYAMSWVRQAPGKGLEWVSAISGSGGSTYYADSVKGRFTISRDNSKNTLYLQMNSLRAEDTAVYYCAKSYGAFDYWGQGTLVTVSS
# VL: QSVLTQPPSVSGAPGQRVTISCTGSSSNIGVAHDVHWYQQLPGTAPKLLIYDYSERPSGVPDRFSGSKSGTSASLAITGLQAEDEADYYCQSWDNGPNGLVWVFGGGTKLTVLG
# notes: Bivalent IgG1 mAb derived from AC21 by lead optimization; 6 carries the IgG1 Fc)
# B20: AC59 (antibody, human IgG1, lambda, V domains shown)
# VH: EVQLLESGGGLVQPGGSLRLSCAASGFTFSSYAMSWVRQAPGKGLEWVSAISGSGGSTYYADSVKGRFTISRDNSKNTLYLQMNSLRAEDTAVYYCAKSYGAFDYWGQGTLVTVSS
# VL: B19 VL with G96S, P97E, V101I, W102Y
# notes: as for B19
# Biological target: T1, human CEACAM5 expressed on MKN-45 wt …
# Assay: cell-based or functional assay
row,EC50 (µg/mL) of phagocytosis [µg/mL],Binder
1,0.3,B1
2,1.6,B2
3,5,B3
4,0.8,B4
5,0.9,B5
6,1,B6

# Biological target: T1, human CEACAM5 expressed on MKN-45 wt …
# Assay: cell-based or functional assay
# Remark: another data set of the same source
row,EC50 (µg/mL) of phagocytosis [µg/mL],Binder
1,0.3,B7
2,0.07,B8

# Biological target: T1, human CEACAM5 expressed on MKN-45 wt …
# Assay: flow cytometry on MKN-45 wt cells (express CEACAM5 and CD47)
EC50 [nM],Emax (MFI),Binder
19,2.75e+06,B1
91,2.26e+06,B2
47,1.59e+06,B3
38,2.63e+06,B4
221,3.9e+06,B5
219,3.3e+06,B6
145,1.41e+06,B9
135,1.77e+06,B10
123,1.52e+06,B11
146,1.52e+06,B12
121,2.08e+06,B13

# Biological target: T2, biotinylated recombinant human CEACAM5
# Assay: reference mAb in the competition ELISA on biotinylated human CEACAM5
row,binding result,Binder
1,binds,B14
2,binds,B15

# Biological target: T3, human CD47 expressed at the surface of MKN45 cells (human, UniProt Q08722 19-323)
# T3 construct: whole, on cells; also called IAP
# Assay: inhibition of SIRPα mouseFc binding to CD47 on MKN45 cells; imaging (CX5)
# T3 sequence (Q08722 19-323): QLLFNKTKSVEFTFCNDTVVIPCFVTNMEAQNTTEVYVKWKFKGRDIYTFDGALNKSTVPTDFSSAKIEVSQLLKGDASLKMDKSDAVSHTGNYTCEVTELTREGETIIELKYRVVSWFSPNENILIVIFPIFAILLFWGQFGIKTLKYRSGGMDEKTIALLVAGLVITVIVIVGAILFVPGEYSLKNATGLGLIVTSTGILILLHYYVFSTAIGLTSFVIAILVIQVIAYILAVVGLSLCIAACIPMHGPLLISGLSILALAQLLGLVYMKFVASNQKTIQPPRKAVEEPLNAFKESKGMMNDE
row,IC50 [nM],Binder
1,0.16,B1
2,1.1,B2
3,2.8,B3
4,0.3,B4
5,1.6,B5
6,1.1,B6
7,3.7,B9
8,3.9,B10
9,2.9,B11
10,6.8,B12
11,3.2,B13

# Biological target: T2, biotinylated recombinant human CEACAM5
# Assay: ELISA; biotinylated recombinant protein on streptavidin plate; bivalent mAb titrated
row,EC50 [nM],Binder
1,0.1,B16
2,0.01,B17
3,0.09,B18
4,0.04,B19
5,0.05,B20

# Biological target: T4, recombinant cynomolgus monkey CEACAM5 (cynomolgus monkey (macaca fascicularis))
# T4 construct: also called cyno CEACAM5; cynomolgus CEACAM5
# Assay: as above
row,EC50 [nM],Binder
1,0.03,B16
2,0.02,B17
3,0.05,B18
4,0.04,B19
5,0.05,B20

# Biological target: T2, biotinylated recombinant human CEACAM5
# Assay: as above
# Remark: another data set of the same source
row,EC50 [nM],Binder
1,0.1,B16
2,0.09,B18

# Reference: patent EP3831849A1 (LamKap Bio beta AG, dated 2021)
